Laboratory results reported in PMC7954794, “Protein context shapes the specificity of SH3 domain-mediated interactions in vivo” (Nature Communications, 2021).

B1: YLR332W (protein, UniProt P36027 26-376, looked up)
Cell wall integrity sensor …: QFFVQSSSSNSSAVSTARSSVSRVSSSSSILSSSMVSSSSADSSSLTSSTSSRSLVSHTSSSTSIASISFTSFSFSSDSSTSSSSSASSDSSSSSSFSISSTSATSESSTSSTQTSTSSSSSLSSTPSSSSSPSTITSAPSTSSTPSTTAYNQGSTITSIINGKTILSNHYTTVTYTPSATADSSNKSKSSGLSKKNRNIVIGCVVGIGVPLILVILALIYMFCIQSSRTDFIDSDGKVVTAYRANKFTKWWYMLLGKKVSDEYHSDSPLGGSASSAGGLDLDEADDVMEQSSLFDVRIRDSDSVLPNANTADHNNTNSGGEPINSSVASNDIIEEKFYDEQGNELSPRNY
B2: YHR158C (protein, UniProt P38853 1-1164, looked up)
Kelch repeat-containing …: MAGFSFAKKFTHKKHGKTPSDASISDQSREASLSTPPNEKFFTKQETPQKGRQFSQGYHSNVNKTSSPPMFARKQVSESRIQPSAVPPQQRNVSGPSTTLHKQLSKQREYTVWNRIKLQNSPFPRYRHVASAYVTDKNQIYVIGGLHDQSVYGDTWILTAFDNATRFSTTTIDISEATPPPRVGHAAVLCGNAFVVFGGDTHKVNKEGLMDDDIYLLNINSYKWTVPAPVGPRPLGRYGHKISIIATTQMKTKLYVFGGQFDDTYFNDLAVYDLSSFRRPDSHWEFLKPRTFTPPPITNFTMISYDSKLWVFGGDTLQGLVNDVFMYDPAINDWFIIDTTGEKPPPVQEHATVVYNDLMCVVGGKDEHDAYLNSVYFLNLKSRKWFKLPVFTAGIPQGRSGHSLTLLKNDKILIMGGDKFDYARVEEYDLHTSDIDMQRGTIVYTLDLARIKDLCPGVMDVPTDTPTPRNGNLDLATPVTPTSHQTKNMNVPISAAPLASAPSPAPKDFSDADRLNREVHNRNVSTEHQNQSHPVNSESHLIAEPNILTPYVPSESSQTPVMKITSNKPFDTPTIQKEPDLSETMDPTVGNQRIPSSIYGDNLTPANQIKNNSPILETLPSNEIKTPQNGNIEEIKHLPDADEKIDSTTTFDQEINGDKLGTSSMSKVEEDGNVADEDDEIGVAQMASSPSKDQFKIKHYNESSELSQNNTEIDKLSEPVDITIKKSDTAGHDSANHVIDASDEKNVSPMGDVPTDTKNEEASVPINRDATTEVVDRALFEKLRSELQSLKELTHEKALEAGAHIKELETELWQLKSQKNSGTTKEIDELDSVRLQSKCEILEADNHSLEDKVNELEELVNSKFLDIENLNEVIQFQNEKIKSLELEPNYKEKLEELQIEHENLSRENERLKNESKQHNEDIINNVANYSSQLGSLISHWKENRANSSFLESSSSLISVSDENGEKTVGEPYGDQSRHHRVVINKLTNRLDDLLERSQELTISKEKLSSEYHALKMEHSSLSQDVLVKENEIKKIQNDYKESISSMDSASKALMVSQRELEKYKSLNKKLIDELDELKFKNGVCSENFENGLRSTEESSNNVKNSNSIRENQFNIKINDLKAELFITNQERDDLKSEVLELKKRLLNLENNTKQVNEDADSDLL
B3: YER149C (protein, UniProt P40091 1-420, looked up)
Protein PEA2: MHKFDLELSRRANPLLFSAERYEEYPLKYDELKQYLLSQNPSHPHHNSRPYTSIDYFDYLLYRSKNDESEIDLDKKLVSEFALYYVQKEHLNSDDLNPTLNELLKLQPKSADWYEMMLRILESINTTGIDQLTKENNNSFPNSKRARSSTNMGGTDKFNKGAYHTDKADDDKNEILQELTSFLMSNSIQKGIDIKPIPLDDPVKFLKNGINSILDTCVSLEKNTSSPPISPNAAAIQEEDSSKKLEELETAFSDLQLAHNFLTKQFENDRAEYVQDIEKLTRTNRELQDKLLNNHSNLSKTEKKLHELEQENKELEKANNKLNSSRHNFGMSSPASSPVTWDPSSPSSVGSPTSGSGSRSLSIMTSEFKKVLTSTQRKYEKELSDEREHRFKLERELALLKNAEANTSLALNRDDPPDML
B4: YCR030C (protein, UniProt P25623 1-870, looked up)
Suppressor of yeast profilin …: MTEQRTKYADSILTTKSPYEATETIRIRLSQVKLLNKDFYLLFKELANLKRNYAQQLRKIIAENEDITKILNAQMIESNVLTPQEMSAFRFNSLGELRNVWDTVIEELKSDLKSSTEYYNTLDQQVVRELKESVENNTSWRESKDLHSKLSKNAASIEHYSKNNENSSHLEEARRQWDQQSPYLFELFETIDYNRLDTLKNCMLRFQTSFSDYLLNTTKECETVMTKFLAFEPQSEIDRFAKDASQYNFQLSSSSKEVVPNNASPASATGARPVSVSNGAANTEREKKSPQKDKRKSAFGNIGHRLASASSSLTHNDLMNNEFSDSTNNSSLKSKKSSHTLRSKVGSIFGRNKTKNKRQQQSSSNSHIQASITETPNNSSTRVSSTATSSIYQKQRRPTYSSSKSNNWTPGEASDTPPLPPHATPKNVDAPVTADTPPAQTFTPSEVPPSTPQQSSPPTAKEPDSSNLPKTVPISISQPPLQPQSKTKPLPVEPASPSISLPTATVDNQPSGQVDSRPLHIRAPALPPSRKQNFIHNRDSQLYDSLPNHGSGATPTSSSLSSIPQERPVSTLSSQITGELRELNPQATGSSTSLVGQSLFQHSSLDTSQFGLNASIAEVLNASFKDGMLQNSQLIGEIALNYLPNSVMNSPLPIGINLRINNGAKFEKVILNQAFIERVAPEEFKVNPSFIDSRTLGAIKYSIKEPIAPIVIHPVWRFESHQASVVLTVKMSPSLPDEISQIVIEDLVVFVNIDGANATSALSKPQGSFSKEKKRITWRFKEPVVLTRNGEGQRLIARFITDGLAHESAKGVITKFTISETDNVALPHSGAGSGITLTCQELDENNPFGGEWLDVNTKRTLTTGNYHGLA
B5: YKL117W (protein, UniProt P28707 2-216, looked up)
Co-chaperone protein SBA1: SDKVINPQVAWAQRSSTTDPERNYVLITVSIADCDAPELTIKPSYIELKAQSKPHVGDENVHHYQLHIDLYKEIIPEKTMHKVANGQHYFLKLYKKDLESEYWPRLTKEKVKYPYIKTDFDKWVDEDEQDEVEAEGNDAAQGMDFSQMMGGAGGAGGAGGMDFSQMMGGAGGAGSPDMAQLQQLLAQSGGNLDMGDFKENDEEDEEEEIEPEVKA

Columns and labels:
Assay type in all cases: cell-based, Saccharomyces cerevisiae
BBC1 = experiment: DHFR-PCA on solid medium, bait BBC1 (Fig. 1B); details: bait BBC1, label = prey; for medrep (log2 median colony size normalized to plate background, PCA score): 2-4 replicates
Source text: (§1) Supplement 41467_2021_21873_MOESM8_ESM.xlsx, sheet "Fig1B" | column: medsize; medrep; Ratio; Score

ABP1 = experiment: DHFR-PCA on solid medium, bait ABP1 (Fig. 1B); details: bait ABP1, label = prey; for medrep (log2 median colony size normalized to plate background, PCA score): 2-4 replicates; for Ratio (SH3-deleted/WT medrep): only significant differences showed, PPIs completely lost have a ratio of 0.1 and the gained PPIs 2.5
Source text: as §1

BEM1-1 = experiment: DHFR-PCA on solid medium, bait BEM1-1 (Fig. 1B); details: bait BEM1-1, label = prey; for medrep (log2 median colony size normalized to plate background, PCA score): 2-8 replicates
Source text: as §1

BUD14 = experiment: DHFR-PCA on solid medium, bait BUD14 (Fig. 1B); details: bait BUD14, label = prey; for medrep (log2 median colony size normalized to plate background, PCA score): 4 replicates
Source text: as §1

BOI2 = experiment: DHFR-PCA on solid medium, bait BOI2 (Fig. 1B); details: bait BOI2, label = prey; 3-8 replicates
Source text: as §1

BEM1-2 = experiment: DHFR-PCA on solid medium, bait BEM1-2 (Fig. 1B); details: bait BEM1-2, label = prey; for medrep (log2 median colony size normalized to plate background, PCA score): 2-8 replicates
Source text: as §1

BOI1 = experiment: DHFR-PCA on solid medium, bait BOI1 (Fig. 1B); details: bait BOI1, label = prey; 3-8 replicates
Source text: as §1

[1] = tested on: 575 putative partners (preys) of 22 WT SH3-containing proteins; experiment: DHFR-PCA on solid medium, WT and SH3-deleted baits (Fig. 1B); set-up: key to Score: 0: SH3-independent; 1: SH3-dependent PPIs; 2: SH3-inhibited PPIs; details: for medrep (log2 median colony size normalized to plate background, PCA score): label = prey
Outline: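 In S. cerevisiae, 22 SH3-containing baits fused genomically to DHFR F[1,2], either WT or with each SH3 replaced via CRISPR by a poly-Gly/Ser linker, screened against 575 DHFR F[3] preys plus 40 negative controls in 1536 arrays, preys duplicated at randomized positions.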

[2] = only significant differences showed, PPIs completely lost have a ratio of 0.1 and the gained PPIs 2.5
[3] = bait SLA1-3, DHFR-PCA, Replicates 4 (2 for YCR009C, YDR388W, YIL033C)

Molecule | medrep (log2 median colony size normalized to plate background, PCA score) (BBC1) | medrep (log2 median colony size normalized to plate background, PCA score) (ABP1) | Ratio (SH3-deleted/WT medrep) (ABP1) | medrep (log2 median colony size normalized to plate background, PCA score) (BEM1-1) | medrep (log2 median colony size normalized to plate background, PCA score) (BUD14) | medrep (log2 median colony size normalized to plate background, PCA score) (BEM1-2) | medrep (log2 median colony size normalized to plate background, PCA score) [1, 3] | Score ([1]; bait SLA1-3, label = prey) | further results
B1 | 4.7031 | 3.345 | 1.326 | 4.445 | 1.439 | 4.445 |  |  | medrep (log2 median colony size normalized to plate background, PCA score) (BOI2): 4.169; medrep (log2 median colony size normalized to plate background, PCA score) (BOI1): 3.534
B2 |  |  |  |  | 3.841 |  |  |  | 
B3 |  |  |  |  | 1.879 |  |  |  | Ratio (SH3-deleted/WT medrep) (BUD14; [2]): 0.1
B4 |  | 2.201 |  | 2.035 | 2.234 | 2.035 | 3.1776 | 0 | Ratio (SH3-deleted/WT medrep) (BEM1-1; [2]): 0.1; Ratio (SH3-deleted/WT medrep) (BEM1-2; [2]): 0.1; medrep (log2 median colony size normalized to plate background, PCA score) ([1]; bait SLA1-2, DHFR-PCA, Replicates 4 (2 for YCR009C, YDR388W)): 3.1776; Score ([1]; bait SLA1-2, label = prey): 1; Ratio (SH3-deleted/WT medrep) ([1]; bait SLA1-2, label = prey, only significant differences shown, PPIs completely lost have a ratio of 0.1, gained PPIs 2.5): 0.1
B5 | 1.6151 | 3.786 | 1.319 |  | 3.847 |  | 4.6716 | 0 | Ratio (SH3-deleted/WT medrep) (BBC1; [2]): 0.1
